How the values were obtained:
[1] = target: T1, FcRL6, overexpressed on 3T3 cells (UniProt Q6DN72 20-434, limits assumed); experiment: phage clone on 3T3-FcRL6 cells
T1 construct: whole, on cells
T1 sequence (looked up): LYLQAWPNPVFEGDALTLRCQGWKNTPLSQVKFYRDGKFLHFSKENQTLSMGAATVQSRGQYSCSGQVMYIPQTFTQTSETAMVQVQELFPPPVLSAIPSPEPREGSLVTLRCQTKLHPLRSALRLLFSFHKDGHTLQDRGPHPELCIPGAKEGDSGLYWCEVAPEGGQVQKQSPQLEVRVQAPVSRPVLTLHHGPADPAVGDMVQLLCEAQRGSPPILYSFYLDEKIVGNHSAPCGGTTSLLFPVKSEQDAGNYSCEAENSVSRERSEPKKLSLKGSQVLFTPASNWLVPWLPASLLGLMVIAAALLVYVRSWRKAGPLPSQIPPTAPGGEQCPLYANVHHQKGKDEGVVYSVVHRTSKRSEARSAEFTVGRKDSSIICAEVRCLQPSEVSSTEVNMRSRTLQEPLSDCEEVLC

[2] = target: T2, FcRL3, overexpressed on 3T3 cells (UniProt Q96P31 18-734, limits assumed); experiment: phage clone on 3T3-FcRL3 cells
T2 construct: whole, on cells
T2 sequence (looked up): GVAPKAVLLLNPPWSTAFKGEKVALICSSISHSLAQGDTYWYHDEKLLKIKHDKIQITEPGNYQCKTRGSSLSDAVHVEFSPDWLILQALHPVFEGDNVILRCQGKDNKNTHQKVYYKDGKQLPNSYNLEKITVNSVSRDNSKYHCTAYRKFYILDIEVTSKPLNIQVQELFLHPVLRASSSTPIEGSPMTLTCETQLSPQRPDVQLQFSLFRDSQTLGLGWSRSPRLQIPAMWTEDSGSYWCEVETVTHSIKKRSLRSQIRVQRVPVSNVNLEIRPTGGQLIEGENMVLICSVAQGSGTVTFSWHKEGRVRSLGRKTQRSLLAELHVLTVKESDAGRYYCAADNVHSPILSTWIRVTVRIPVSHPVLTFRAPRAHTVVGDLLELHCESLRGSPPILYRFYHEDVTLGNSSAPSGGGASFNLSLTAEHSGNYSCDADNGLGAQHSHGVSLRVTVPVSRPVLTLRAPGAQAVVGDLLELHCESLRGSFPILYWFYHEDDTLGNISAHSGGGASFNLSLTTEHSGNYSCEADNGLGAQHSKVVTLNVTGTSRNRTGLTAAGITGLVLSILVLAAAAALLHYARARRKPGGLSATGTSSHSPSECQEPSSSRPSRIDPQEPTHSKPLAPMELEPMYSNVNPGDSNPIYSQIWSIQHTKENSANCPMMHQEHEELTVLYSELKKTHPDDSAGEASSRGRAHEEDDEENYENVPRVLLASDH

B1: ET200-032 (scFv)
scFv: LPVLTQPPSASGTPGQRVTISCSGSSSNVGSYTVNWYRQLPGTAPTLLIYNNNQRPSGVPDRFSDSKSGTSASLTISGLQPEDEADYYCAAWDDRLGGYVFGTGTKVTVLGSRGGGGSGGGGSGGGGSLEMAEVQLVQSGAEVKKPGESLKISCKGSGYSFTNYWIGWVRQMPGKGLEWMGIIYPGDSDTRYSPSFQGQVTISADKSISTAYLQWSSLKASDTAMYYCARSTGSSHMSDEWGQGTLVTVSSTSGQAGQHHHHHHGAYPYDVPDYAS
notes: screened as phage clone; entry is VL-linker-VH-His tag-HA tag
B1: no binding [1]; no binding [2].

B2: ET200-038 (scFv)
scFv: QSVLTQPPSVSGAPGQRVTISCTGSSSNIGAGFDVHWYQLLPGTAPKLLIYANSNRPSGVPDRFSGSKSGTSASLAITGLLAEDEADYYCQSYDSSLSGVVFGGGTKLTVLGSRGGGGSGGGGSGGGGSLEMAQVQLVQSGAEVKKPGSSVKVSCKASGGTFSSYAISWVRQAPGQGLEWMGGIIPIFGTANYAQKFQGRVTITADESTSTAYMELSSLRSEDTAVYYCARGASFDRHDNWGQGTLVTVSSTSGQAGQHHHHHHGAYPYDVPDYAS
notes: as for B1
B2: no binding [1]; no binding [2].

B3: ET200-028 (scFv)
scFv: QSVLTQPPAASGTPGQRVTISCSGGVSNIGSGALNWYQQLPGTAPKLLIYSYNQRPSGVSDRFSGSRSATSASLAISGLQSEDEADYYCATWDDSVNGWVFGGGTKLTVLGSRGGGGSGGGGSGGGGSLEMAQVQLVQSGAEVKKPGDSVKVSCKPSGYNFLNYGINWVRQAPGQGLEWMGWISTYTGNTNYAQKLQGRVTFTTDTSTSTAYMEMRSLRSDDTAVYYCARDLYYYEGVDYWGQGTLVTVSSTSGQAGQHHHHHHGAYPYDVPDYAS
notes: as for B1
B3: no binding [1]; no binding [2].

B4: ET200-030 (scFv)
scFv: QSVVTQPPSVSGAPGQRVTISCTGSSSNIGAGYDVNWYQQFPGTAPKLLIYGNSNRPSGVPDRFSGSKSGTSASLAITGLQAEDEADYYCQSYDSSLSGSYVFGTGTKVTVLGSRGGGGSGGGGSGGGGSLEMAQMQLVQSGAEVKKPGASVKVSCKASGYTLTELSMHWVRQAPGKGLEWMGGFDPEDGETIYAQKFQGRVTMTEDTSTDTAYMELSSLRSEDTAVYYCARMSSMYYDWGQGTLVTVSSTSGQAGQHHHHHHGAYPYDVPDYAS
notes: as for B1
B4: no binding [1]; no binding [2].

B5: ET200-034 (scFv)
scFv: QSVLTQPPSVSGAPGQRVTISCTGSTSNIGAGYDVHWYQQLPGTAPKLLINNNRNRPSGVPDRFSGSKSGTSATLGITGLQTGDEADYYCGTWDGSLTGAVFGGGTKLTVLGSRGGGGSGGGGSGGGGSLEMAEVQLVQSGAEVKKPGSSVKVSCKASGGTFSSYAISWVRQAPGQGLEWMGGIIPIFGTANYAQKFQGRVTITADESTSTAYMELSSLRSEDTAVYYCARGSALDHYDRWGQGTLVTVSSTSGQAGQHHHHHHGAYPYDVPDYAS
notes: as for B1
B5: no binding [1]; no binding [2].

B6: ET200-040 (scFv)
scFv: QSVLTQPPSVSGAPGQRVTISCTGSSSNIGAGYDVHWYQQLPGTAPKLLIYGNSNRPSGVPDRFSGSKSGTSASLAITGLQAEDEADYYCQSYDSSLSGYVFGTGTKVTVLGSRGGGGSGGGGSGGGGSLEMAQVQLVQSGAEVKKPGASVKVSCKVSGYTLTELSMHWVRQAPGKGLEWMGGFDPEDGETIYAQKFQGRVTMTEDTSTDTAYMELSSLRSEDTAVYYCARYSGVYYDWGQGTLVTVSSTSGQAGQHHHHHHGAYPYDVPDYAS
notes: as for B1
B6: no binding [1]; no binding [2].

B7: ET200-033 (scFv)
scFv: NFMLTQPHSVSESPGKTVTISCTGSSGSIASNYVQWYQQRPGSAPTTVIYEDNQRPSGVPDRFSGSIDSSSNSASLTISGLKTEDEADYYCQSYDSSNHWVFGGGTKLTVLGSRGGGGSGGGGSGGGGSLEMAQVQLQQWGAGLLKPSETLSLTCAVYGGSFSGYYWSWIRQPPGKGLEWIGEITHSGRSNYNPSLKSRVTISVDTSKNQFSLKLSSVTAADTAVYYCARSSIMSDYWGQGTLVTVSSTSGQAGQHHHHHHGAYPYDVPDYAS
notes: as for B1
B7: no binding [1]; no binding [2].

B8: ET200-031 (scFv)
scFv: SYVLTQPPSVSVAPGKTARITCGGNNIGSKSVHWYQQKPGQAPVLVIYYDSDRPSGIPERFSGSNSGNTATLTISRVEAGDEADYYCQVWDSSSDYVFGTGTKVTVLGSRGGGGSGGGGSGGGGSLEMAEVQLVETGGGLVKPGGSLRLSCAASGFTVSDYYMSWIRQAPGKGLEWISYISGSGNSIYYADSVKGRFTISRDNAKNSLDLQMTSLRAEDTAVYYCARSTKFDYWGQGTLVTVSSTSGQAGQHHHHHHGAYPYDVPDYAS
notes: screened as phage clone; entry is VL-linker-VH-His tag-HA tag; also called ET200-31
B8: no binding [1]; no binding [2].

B9: ET200-027 (scFv)
scFv: QSVLTQPPSVSGAPGQGVTIPCTGSSSNIGAGYDVHWYQQLPGTAPKLLIYGNNNRPSGVPDRFSGSRSGSSASLAITGLQAEDEADYYCQSYDSSLSDVVFGGGTKVTVLGSRGGGGSGGGGSGGGGSLEMAEVQLVQSGAEVKKPGATVKISCKVSGYTFTDYYMHWVQQAPGKGLEWMGLVDPEDGETIYAEKFQGRVTITADTSTDTAYMELSSLRSEDTAVYYCARYWSYSFDYLYMPEGNDWWGQGTLVTVSSTSGQAGQHHHHHHGAYPYDVPDYAS
notes: as for B1
B9: no binding [1]; no binding [2].

B10: ET200-035 (scFv)
scFv: NFMLTQPHSVSESPGKTVTISCTRSSGSIASNYVQWYQQRPGSAPTTVIYEDNQRPSGVPDRFSGSIDSSSNSASLTISGLKTEDEADYYCQSYDSTNWVFGGGTKLTVLGSRGGGGSGGGGSGGGGSLEMAQVQLVQSGAEVKKPGSSVKVSCKASGGTFSSYAISWVRQAPGQGLEWMGGIIPIFGTANYAQKFQGRVTITADESTSTAYMELSSLRSEDTAVYYCARYNYYFNDYWGQGTLVTVSSTSGQAGQHHHHHHGAYPYDVPDYAS
notes: as for B1
B10: no binding [1]; no binding [2].

B11: ET200-041 (scFv)
scFv: NFMLTQPHSVSGSPGKTVTISCTGSSGSIADNFVQWYQQRPGGVPTTVIFNDDERPSGVPDRFSGSIDTSSNSASLTISGLKTEDEADYYCQSYDNNNRGVFGGGTKLTVLGSRGGGGSGGGGSGGGGSLEMAQVQLVQSGAEVKKPGSSVKVSCKASGGTFSSYAISWVRQAPGQGLEWMGWMNPNSGNTGYAQKFQGRVTMTRNTSISTAYMELSNLRSEDTAVYYCARYYSYGYDWGQGTLVTVSSTSGQAGQHHHHHHGAYPYDVPDYAS
notes: as for B1
B11: no binding [1]; no binding [2].

B12: ET200-029 (scFv)
scFv: QAVLTQPPSVSVAPGKTARVTCGGNNIGSESVHWYQQKPGQAPVLVIYYDTDRPSGIPERFSGSHSGTTATLTISRVEAGDEADYYCQVWDSSRDHVVFGGGTKLTVLGSRGGGGSGGGGSGGGGSLEMAQVQLVQSGGGVVQPGRSLRLSCAASGFTFSSYAMHWVRQAPGKGLEWVAVISYDGSNKYYADSVKGLFTISRDNSKNTLYLQMNSLRAEDTAVYYCARSYFTSGFYDYWGQGTLVTVSSTSGQAGQHHHHHHGAYPYDVPDYAS
notes: as for B1
B12: no binding [1]; no binding [2].

B13: ET200-003 (scFv)
scFv: QSVLTQPPSVSVSPGQTASISCSGNKLGTKYVYWYQKRPGQSPVLVMYEDNQRPSGIPERFSGSNSGNTATLTIRGTQTVDEADYYCQAWDSDTFVVFGGGTKVTVLGSRGGGGSGGGGSGGGGSLEMAEVQLVETGGGVVQPGRSLRLSCAASGFTFSSYGMHWVRQAPGKGLEWVAVISHDGSNKYYADSVKGRFTISRDNSKDTLYLQMNSLRGEDTAVYYCARSNQWSGYFSFDYWGQGTLVTVSSTSGQAGQHHHHHHGAYPYDVPDYAS
notes: as for B1
B13: no binding [1]; no binding [2].

B14: ET200-002 (scFv)
scFv: NFMLTQPHSVSESPGKTVTISCTRSSGSIASNYVQWYQQRPGSAPTTVIYEDNQRPSGVPDRFSGSIDSSSNSASLTISGLKTEDEADYYCQSYDSSNSVVFGGGTKLTVLGSRGGGGSGGGGSGGGGSLEMAQVQLVQSGTEVKKPGASVRVACKASGYPFNKYDINWVRQAPGQGLEWMGGIIPIFRTTNYAQKFQGRVTITADESTSTAYMELSSLRSEDTAVYYCAREWFYWDIWGQGTLVTVSSTSGQAGQHHHHHHGAYPYDVPDYAS
notes: as for B1
B14: no binding [1]; no binding [2].
